Laboratory results taken from US20080119424A1 (published 2008).

T1: endogenous RARα (Retinoic Acid Receptor alpha) of mouse cells (mouse (endogenous in mouse embryonic …, UniProt P11416 1-462, limits assumed))
T1 construct: Endogenous protein detected by immunoblot with anti-RARα (C-20)
T1 sequence (looked up): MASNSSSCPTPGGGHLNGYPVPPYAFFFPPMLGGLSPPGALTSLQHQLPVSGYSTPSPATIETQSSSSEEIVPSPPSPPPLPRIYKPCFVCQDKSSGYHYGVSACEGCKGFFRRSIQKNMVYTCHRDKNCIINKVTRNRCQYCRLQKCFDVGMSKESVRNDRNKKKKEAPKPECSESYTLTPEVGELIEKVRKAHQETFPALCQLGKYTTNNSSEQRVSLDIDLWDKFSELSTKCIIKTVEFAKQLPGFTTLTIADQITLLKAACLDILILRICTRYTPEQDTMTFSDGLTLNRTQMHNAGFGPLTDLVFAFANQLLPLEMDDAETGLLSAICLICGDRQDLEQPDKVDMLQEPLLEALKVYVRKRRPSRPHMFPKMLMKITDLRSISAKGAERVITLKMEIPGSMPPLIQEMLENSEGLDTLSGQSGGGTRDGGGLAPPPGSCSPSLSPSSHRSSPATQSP

T2: VP16-RARα LBD (UniProt P10276 154-462)
T2 construct: domain: LBD
T2 sequence: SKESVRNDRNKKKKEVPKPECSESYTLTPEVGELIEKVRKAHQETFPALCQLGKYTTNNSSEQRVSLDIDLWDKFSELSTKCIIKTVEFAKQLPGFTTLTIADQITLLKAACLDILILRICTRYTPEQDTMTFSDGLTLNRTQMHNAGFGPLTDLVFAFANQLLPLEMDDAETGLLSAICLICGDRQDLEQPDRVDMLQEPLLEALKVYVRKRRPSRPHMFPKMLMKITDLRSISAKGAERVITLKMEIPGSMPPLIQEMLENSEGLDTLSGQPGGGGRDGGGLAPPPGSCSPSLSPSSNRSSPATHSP


Tests used:
[1] = molecular target: T1, endogenous RARα (Retinoic Acid Receptor …); assay: co-immunoprecipitation, immunoblot for RARα
Procedure: Proteins were transferred to polyvinylidine difluoride membranes (Immobilon P, Millipore) and Western blots were probed with the indicated antibodies. For TAP (co-)immunoprecipitations cells were lysed in ELB buffer (0.25 M NaCl, 0.1% NP-40, 50 mM HEPES pH 7.3) supplemented with protease inhibitors and PMSF.

[2] = molecular target: T2, VP16-RARα LBD; assay: mammalian two-hybrid assay (luciferase) in the presence of RA

Row | Binder | binding result [1] | binding result [2]
1 | TAP-PRAME-LREVV mutant protein (other, not shown: TAP tag) MERRRLRGSIQSRYISMSVWTSPRRLVELAGQSLLKDEALAIAALELLPRELFPPLFMAAFDGRHSQTLKAMVQAWPFTCLPLGVLMKGQHLHLETFKAVLDGLDVLLAQEVRPRRWKLQVLDLRKNSHQDFWTVWSGNRASLYSFPEPEAAQPMTKKRKVDGLSTEAEQPFIPVEVLVDLFLKEGACDELFSYLIEKVKRKKNVLRLCCKKLKIFAMPMQDIKMILKMVQLDSIEDLEVTCTWKLPTLAKFSPYLGQMINLRRLLLSHIHASSYISPEKEEQYIAQFTSQFLSLQCLQALYVDSLFFLRGRLDQLLRHVMNPLETLSITNCRLSEGDVMHLSQSPSVSQLSVLSLSGVMLTDVSPEPLQALLERASATLQDLVFDECGITDDQLLALLPSLSHCSQLTTLSFYGNSISISALQSLLQHLIGLSNLTHVLYPVPLESYEDIHGTLHLERLAYLHARLREVVCELGRPSMVWLSANPCPHCGDRTFYDPEPILCPCFMPN | no binding | 
2 | PRAME-ΔLXXLL (other, also called PRAME mutant in which all 7 NR boxes were mutated) MERRRLRGSIQSRYISMSVWTSPRRLVELAGQSLLKDEALAIAALELLPRELFPPLFMAAFDGRHSQTLKAMVQAWPFTCLPLGVLMKGQHLHLETFKAVLDGLDVVVAQEVRPRRWKLQVLDLRKNSHQDFWTVWSGNRASLYSFPEPEAAQPMTKKRKVDGLSTEAEQPFIPVEVLVDLFLKEGACDELFSYLIEKVKRKKNVLRLCCKKLKIFAMPMQDIKMILKMVQLDSIEDLEVTCTWKLPTLAKFSPYLGQMINVRRLLLSHIHASSYISPEKEEQYIAQFTSQFLSLQCLQALYVDSLFFLRGRLDQVVRHVMNPLETLSITNCRLSEGDVMHLSQSPSVSQLSVLSLSGVMLTDVSPEPVQALLERASATLQDLVFDECGITDDQLLAVVPSLSHCSQLTTLSFYGNSISISALQSVVQHLIGLSNLTHVLYPVPLESYEDIHGTLHLERLAYLHARLREVVCELGRPSMVWLSANPCPHCGDRTFYDPEPILCPCFMPN | no binding | 
3 | Gal4-… (416-509) (other, not shown: large carriers; small tags and cut ends, also called box 7 mutant) NSISISALQSLLQHLIGLSNLTHVLYPVPLESYEDIHGTLHLERLAYLHARLREVVCELGRPSMVWLSANPCPHCGDRTFYDPEPILCPCFMPN |  | no binding
